Laboratory results published in the supplement of paper PMC11908140.

B1: library; numbered along this chain (parent)
chain: MRKPRAAVGSGHRKQAASQEGRQKHAKNNSQAKPSACDGLARQPEEVVLQASVSSYHLFRDVAEVTAFRGSLLSWYDQEKRDLPWRRRAEDEMDLDRRAYAVWVSEVMLQQTQVATVINYYTGWMQKWPTLQDLASASLEEVNQLWAGLGYYSRGRRLQEGARKVVEELGGHMPRTAETLQQLLPGVGRYTAGAIASIAFGQATGVVDGNVARVLCRVRAIGADPSSTLVSQQLWGLAQQLVDPARPGDFNQAAMELGATVCTPQRPLCSQCPVESLCRARQRVEQEQLLASGSLSGSPDVEECAPNTGQCHLCLPPSEPWDQTLGVVNFPRKASRKPPREESSATCVLEQPGALGAQILLVQRPNSGLLAGLWEFPSVTWEPSEQLQRKALLQELQRWAGPLPATHLRHLGEVVHTFSHIKLTYQVYGLALEGQTPVTTVPPGARWLTQEEFHTAAVSTAMKKVFRVYQGQQPGTCMGSKRSQVSSPCSRKKPRMGQQVLDNFFRSHISTDAHSLNSAAQ

Variants of: B1
Test: 8OG:A repair function score (normalized; synonymous = 0, nonsense = -1) (normalized log-likelihood score); higher = more repair activity (WT-like)
Details: with 8OG:A DNA repair reporter (GFP) in HEK-293 MUTYH KO cells
Description: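 Saturation mutagenesis (NNN codon scan) of the MUTYH cDNA (521-aa nuclear isoform NM_001048174.1 / NP_001041639), stably expressed under doxycycline induction in HEK-293 MUTYH knockout cells. Cells were co-transfected with an 8OG:A-bearing GFP repair reporter plus mCherry and sorted 72 h later into GFP+ and GFP− bins, three replicates per tile. The Rosace log2 enrichment (GFP+ vs GFP−) was converted per tile to a normalized function score with synonymous variants centered at 0 and nonsense variants (codons 1-471) at -1; low-abundance variants were removed.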

Variant | 8OG:A repair function score
L169E | -0.261
P339A | -0.12
Y56G | -0.0482
Y56L | 0.00637
N251S | -0.903
N251W | -0.879
N251Y | -1.01
R189G | -0.299
W124D | -0.574
L139S | -0.0783
L139Q | -0.0666
W447E | -1.14
A101N | -0.0446
N119H | 0.126
N119M | -0.216
L360G | -0.95
L360K | -1.23
V415N | -0.11
V117M | -0.226
V104F | -1.1
V104A | -0.365
V104R | -1.11
F466P | -1.3
F466V | -0.443

Variant | 8OG:A repair function score
F466W | -0.0618
P338M | 0.0756
P338C | -0.0613
C216H | -0.687
P365W | -0.0852
L95A | 0.00636
F68C | -0.545
F68K | -0.962
G444A | -0.284
S138A | -0.0766
G155S | -0.0824
S518Q | -0.0542
G123C | 0.124
G123L | 0.0662
G401P | 0.0452
K3Y | 0.137
V328L | 0.0391
R175S | -0.0258
E341W | 0.0472
E341N | -0.0613
R336Y | -0.18
P442E | -0.177
Y121T | -1.25
R213M | -1.04

Variant | 8OG:A repair function score
I118V | 0.00363
I118T | -0.0724
K463P | -0.617
D208Q | -1.01
T179Y | -0.146
I221S | -0.991
S507P | 0.0118
D300Y | -0.121
G434T | -0.0414
G434L | -0.158
W399Y | 0.509
R332L | -0.109
R332S | -0.0346
L295H | -0.0248
E285W | 0.0108
T424A | -0.121
R87V | -0.0326
R87D | -0.0278
R87G | -0.0274
R87M | -0.0864
Q358A | -0.219
Q182R | -0.0127
R156T | -0.238
L58S | -0.0155

Variant | 8OG:A repair function score
E64R | -0.103
E319D | -0.0309
A36N | -0.0203
A36F | 0.0951
A36G | -0.011
G412M | -0.67
T460Q | -0.131
G372H | -0.297
G372Y | -0.393
H172P | -0.512
E302T | -0.238
H508V | -0.0097
R482L | 0.00831
S276H | 0.0172
S276V | -0.0409
T263Y | -0.113
T263S | -0.0723
L432V | -0.118
L432E | -0.542
W381A | 0.0585
G248C | -0.885
L430Y | -0.0889
H454G | -0.0392
E79R | 0.00654

Variant | 8OG:A repair function score
R506Y | 0.0145
H57W | -1.09
A431Q | -0.242
A431I | 0.0332
D512F | -0.0699
R60S | 0.00106
R60H | -0.196
L229N | -0.25
C311I | -0.59
C311N | -0.628
E160G | -0.116
W128R | -0.696
A177C | -0.0436
G497S | -0.0201
T455H | 0.0572
T455S | 0.128
P443A | 0.0799
P443N | 0.222
E256H | -1.34
R364W | -1.11
S153T | 0.158
P273L | -0.946
T176K | -0.0846
T176N | 0.0341

Variant | 8OG:A repair function score
Q233S | 0.0726
Q233L | 0.227
Q233C | -0.188
A212P | -0.961
Q397M | -0.301
N329L | -0.301
R340T | -0.0938
R219H | -0.593
R219N | -0.877
R219W | -0.783
M255I | -0.363
Q232E | 0.105
G201L | -0.298
T406E | -0.17
V142E | -0.728
S459Y | -0.268
P377M | -1.07
Y151M | -0.45
A63M | -0.0357
L72R | -1.65
L72K | -1.1
E287I | -0.038
A254L | 0.114
A254M | 0.317

Variant | 8OG:A repair function score
S226M | -0.173
C489Q | -0.0376
C489G | 0.00751
G326N | -0.0169
D249A | -0.31
R98E | -0.275
S335L | -0.0705
L408R | -0.839
L373W | -0.229
L373H | -0.452
L373I | -0.315
A238P | -1.01
A238W | -0.956
A238L | -0.816
V165T | -0.312
P185V | -0.299
P225L | 0.119
S298I | 0.0307
N366A | 0.0425
A519L | -0.012
T439G | 0.107
T439K | 0.00137
S515D | -0.0425
